B1: EPI-X4 JM#21 [human] / CXCR4 wt (transfected 293T cells) [human] (parent complex)
chain 1: ILRWSRKLPCVS
chain 2: MEGISIYTSDNYTEEMGSGDYDSMKEPCFREENANFNKIFLPTIYSIIFLTGIVGNGLVILVMGYQKKLRSMTDKYRLHLSVADLLFVITLPFWAVDAVANWYFGNFLCKAVHVIYTVNLYSSVLILAFISLDRYLAIVHATNSQRPRKLLAEKVVYVGVWIPALLLTIPDFIFANVSEADDRYICDRFYPNDLWVVVFQFQHIMVGLILPGIVILSCYCIIISKLSHSKGHQKRKALKTTVILILAFFACWLPYYIGISIDSFILLEIIKQGCEFENTVHKWISITEALAFFHCCLNPILYAFLGAKFKTSAQHALTSVSRGSSLKILSKGKRGGHSSVSTESESSSFHSS
B2: WSC02 [human] / CXCR4 wt (transfected 293T cells) [human] (parent complex)
chain 1: IVRWSKKVPCVS
chain 2: B1 chain 2

From paper PMC8458281, “Computational modeling and experimental validation of the EPI-X4/CXCR4 complex allows rational design of small peptide antagonists” (Communications Biology, 2021) come the findings set out here.

Broadly, the IC50 is the concentration at which inhibition is half-maximal.

One assay covers variants of B1. The experiment in a line: 12G5 antibody competition assay, flow cytometry on transfected 293T cells; 2 h incubation; IC50 set to 100 µM if above the maximally used concentration; parent: 620 nM; read off a plot. Background: In flow cytometry, cells or beads pass a laser one at a time.
With chain 2 D262A, the IC50 was roughly 220 nM.

chain 2 D97E, chain 2 V112L: the 50% inhibitory concentration (IC50) was roughly 380 nM.

Regarding chain 2 D97E, chain 2 V112A, the IC50 is roughly 460 nM.

chain 2 L41A, chain 2 V112A: the IC50 was roughly 630 nM.

Regarding chain 2 L41A, the IC50 is roughly 650 nM.

Regarding chain 2 E277A, the IC50 was roughly 270 nM.

For chain 2 D97T, the half-maximal inhibitory concentration (IC50) was roughly 3700 nM.

Consider chain 2 D97E, for which the IC50 is roughly 1800 nM.

With chain 2 D97Q, the IC50 is roughly 8000 nM.

Regarding chain 2 D97S, the IC50 is roughly 5400 nM.

Take chain 2 V112L: the 50% inhibitory concentration (IC50) is roughly 400 nM.

As to chain 2 V112A, the IC50 is roughly 3400 nM.

The variants in another assay derive from B2. The experiment in a line: 12G5 antibody competition assay, flow cytometry on transfected 293T cells; 2 h incubation; IC50 set to 1000 µM if above the maximally used concentration; parent: 1e+03 nM; read off a plot.
In the case of chain 2 L41A, chain 2 V112A, the IC50 is roughly 4800 nM.

Take chain 2 D262A: the IC50 is roughly 450 nM.

Take chain 2 D97E, chain 2 V112A: the IC50 is roughly 1700 nM.

chain 2 D97E, chain 2 V112L: the IC50 is roughly 1700 nM.

Regarding chain 2 E277A, the IC50 is roughly 750 nM.

chain 2 L41A: the IC50 is roughly 1500 nM.

As to chain 2 D187E, the IC50 is roughly 420 nM.

For the variant chain 2 D97S, the IC50 is roughly 320000 nM.

With chain 2 D97Q, the IC50 is roughly 690000 nM.

Regarding chain 2 D97T, the half-maximal inhibitory concentration (IC50) is roughly 30000 nM.

With chain 2 D97E, the IC50 is roughly 8000 nM.

For the variant chain 2 D97N, the IC50 was roughly 380000 nM.

Consider chain 2 V112L, for which the IC50 is roughly 400 nM.

For chain 2 V112A, the half-inhibitory concentration (IC50) is roughly 600 nM.
